Substitutions are numbered along the chain they refer to. Names and notes keep the numbering of the source.
B1: AZD8895 P99V (heavy chain) (antibody, V domains shown)
VH: QMQLVQSGPEVKKPGTSVKVSCKASGFTFMSSAVQWVRQARGQRLEWIGWIVIGSGNTNYAQKFQERVTITRDMSTSTAYMELSSLRSEDTAVYYCAAVYCSSISCNDGFDIWGQGTMVTVSS
VL: not shown
B2: AZD8895 P99N (heavy chain) (antibody, V domains shown)
VH: B1 VH with V99N
VL: not shown
B3: AZD8895 D108A (heavy chain) (antibody, V domains shown)
VH: B1 VH with V99P, D108A
VL: not shown
B4: AZD8895 D108N (heavy chain) (antibody, V domains shown)
VH: B1 VH with V99P, D108N
VL: not shown
B5: AZD8895 D108E (heavy chain) (antibody, V domains shown)
VH: B1 VH with V99P, D108E
VL: not shown

Biological target: recombinant SARS-CoV-2 S 6P protein (SARS-CoV-2, Wuhan-Hu-1 reference …, UniProt P0DTC2, stabilised)
Assay: ELISA

Row | Binder | binding result
1 | B1 | binds
2 | B2 | binds
3 | B3 | binds
4 | B4 | binds
5 | B5 | binds

Reference: paper PMC8543371 (Nature microbiology, 2021)
